# Assay results: doi:10.1101/2021.01.11.425814 (bioRxiv, 2021)
# Molecular target: p53 transactivation domain (TAD) (13-61) (human, UniProt P04637 13-61)
# Assay: ITC
# Chain of p53 transactivation domain (TAD) (13-61) (P04637 13-61): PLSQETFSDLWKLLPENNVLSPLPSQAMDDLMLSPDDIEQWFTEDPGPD
binder,measurement,value
FOXO4 forkhead domain (FHD) (95-195) (domain or fragment) GSRRNAWGNQSYAELISQAIESAPEKRLTLAQIYEWMVRTVPYFKDKGDSNSSAGWKNSIRHNLSLHSKFIKVHNEATGKSSWWMLNPEGGKSGKAPRRRA,dH,12.3 kcal/mol
same,stoichiometry N,1.04
